Patent US9429584B2, “Antibody against insoluble fibrin” (National Cancer Center, priority 2013, dated 2016)

T1: insoluble fibrin (Homo sapiens, UniProt P02675+P02679)
T1 sequence (P02675 45-491 limits assumed): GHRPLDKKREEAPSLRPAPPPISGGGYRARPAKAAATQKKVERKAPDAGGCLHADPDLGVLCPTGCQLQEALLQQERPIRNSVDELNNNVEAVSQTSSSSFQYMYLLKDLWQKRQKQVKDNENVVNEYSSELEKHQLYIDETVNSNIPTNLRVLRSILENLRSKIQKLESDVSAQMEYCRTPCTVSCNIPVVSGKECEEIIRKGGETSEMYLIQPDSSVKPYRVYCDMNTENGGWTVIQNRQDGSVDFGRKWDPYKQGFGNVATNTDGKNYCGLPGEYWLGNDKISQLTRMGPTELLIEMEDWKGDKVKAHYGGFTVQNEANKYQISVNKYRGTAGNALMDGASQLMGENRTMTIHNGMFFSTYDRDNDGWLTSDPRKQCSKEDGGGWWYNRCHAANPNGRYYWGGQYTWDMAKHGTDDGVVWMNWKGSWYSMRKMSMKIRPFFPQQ
T1 sequence (P02679 27-453): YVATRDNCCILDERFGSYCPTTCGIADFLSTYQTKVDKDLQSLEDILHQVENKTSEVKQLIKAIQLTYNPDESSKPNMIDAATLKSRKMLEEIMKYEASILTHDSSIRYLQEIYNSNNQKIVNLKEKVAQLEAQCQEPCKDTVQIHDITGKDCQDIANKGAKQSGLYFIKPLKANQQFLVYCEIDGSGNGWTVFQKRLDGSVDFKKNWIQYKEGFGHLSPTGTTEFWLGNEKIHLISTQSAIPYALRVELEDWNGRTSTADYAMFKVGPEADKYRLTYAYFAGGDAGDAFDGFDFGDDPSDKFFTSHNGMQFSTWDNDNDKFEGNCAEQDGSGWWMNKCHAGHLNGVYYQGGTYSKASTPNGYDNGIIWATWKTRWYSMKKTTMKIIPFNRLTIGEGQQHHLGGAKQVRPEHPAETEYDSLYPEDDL


Biological target: T1, insoluble fibrin
Test: ELISA method of Example 2, fibrin plate
Format: binding
Conditions: antibody 10 μg/mL
Description: Each of the antibody solutions (100 μL each) at 10 μg/mL was added to the fibrin plate and the fibrinogen plate, and allowed to stand at room temperature for 1 hour. After washing with TBS-T, Bethyl Anti-Human IgG-HRP (×1000 dilution) or Bethyl Anti-Mouse IgG-HRP (×10000 dilution) was added as a secondary antibody. Then, after washing with TBS-T, colorimetry was conducted with OPD for 10 minutes, and measurement was conducted at an absorption wavelength of 492 nm.

| affinity for insoluble fibrin (absorbance at 492 nm) relative to that of the 102-10 antibody [times] | ratio of the affinity for insoluble fibrin to the affinity for fibrinogen (absorbance at 492 nm) [times] | Molecule |
| --- | --- | --- |
| 16 | 25 | 34-105 antibody: monoclonal anti-γ chain antibody produced by hybridoma 34-105; L chain variable region SEQ ID NO: 3, H chain variable region SEQ ID NO: 7 (antibody, listed as Mus musculus, V domains shown, SITE (1)..(115) Variable Region of Heavy Chain (34-105); SITE (1)..(108) Variable Region of Light Chain(34-105)) VH: EVKLQESGGGLVKPGGSLKLSCAASGFTFSSYAMSWVRQTPEKRLEWVAAISSGGTTYYPDSVKGRFTISRDNARNILYLQMSSLRSEDTAMYYCVRGGTIGAYWGQGTLVTVSA VL: DIVITQSPASLAVSLGQRATISYRASKSVSTSGYSYMHWNQQKPGQPPRLLIYLVSNLESGVPARFSGSGSGTDFTLNIHPVEEEDAATYYCQHIRELTRSEGGPSWK |
| 12 |  | Fib-0355 antibody: monoclonal anti-β chain antibody produced by hybridoma Fib-0355; L chain variable region SEQ ID NO: 11, H chain variable region SEQ ID NO: 15 (antibody, listed as Mus musculus, V domains shown, SITE (1)..(106) Variable Region of Heavy Chain (Fib-0355); SITE (1)..(98) Variable Region of Light Chain(Fib-0355)) VH: GPELKKPGETVKISCKASGYTFTNYGMNWVKQAPGKGLKWMGWINTNTGEPTYAEEFKGRFAFSLETSASTAYLQINNLKNEDTATYFCARLLDYWGQGTTLTVSS VL: PSSLAVSAGEKVTMSCKSSQSVLYSSNQKNYLAWYQQKPGQSPKLLIYWASTRESGVPDRFTGSGSGTDFTLTISSVQAEDLAVYYCQQYLSSYTFGG |
